Laboratory results reported in publication PMC3659105, “Profiling Epidermal Growth Factor Receptor and Heregulin Receptor 3 Heteromerization Using Receptor Tyrosine Kinase Heteromer Investigation Technology” (PLoS ONE, 2013).
Blank lines part the entries; values can stand above or below the compound they belong to.

Assays:
HER3 = target: T1, HER3 (Homo sapiens, UniProt P21860); experiment: Ligand-induced BRET between HER3/Rluc8 and Grb2/Venus (+ pcDNA3); assay type: cell-based
T1 construct: used to replace the C terminus of the full-length constructs (with or without Rluc8); host or cells: HEK293FT
Protocol: (§1) HEK293FT cells (Life Technologies) were maintained at 37°C in 5% CO2 and complete media (Dulbecco's modified Eagle's medium (DMEM) containing 0.3 mg/ml glutamine, 100 IU/ml penicillin and 100 µg/ml streptomycin (GIBCO BRL, Carlsbad, CA, USA)) supplemented with 10% foetal calf serum (FCS) and 400 µg/ml Geneticin (Gibco). Transient transfections were carried out 24 h after seeding about 550,000 cells/well of a 6-well plate. Genejuice (Merck, Kilsyth, Australia) transfection reagent was used according to the manufacturer's instructions. Cells were harvested with 0.05% Trypsin-EDTA (Gibco).
HEK293FT cells were transiently transfected with cDNA encoding a RTK fused to Rluc8 (RTK/Rluc8) and Grb2 fused to Venus (Grb2/Venus), along with a second RTK that was untagged with respect to BRET signaling, or empty vector (pcDNA3). […] BRET measurements were taken at 37°C using the VICTOR Light plate reader with Wallac 1420 software (PerkinElmer, Glen Waverley, Victoria, Australia). Filtered light emissions were sequentially measured at 400–475 and 520–540 nm. The BRET signal was calculated by subtracting the ratio of 520–540 nm emission over 400–475 nm emission for a vehicle-treated cell sample from the same ratio for a second aliquot of the same cells treated with agonist, as described previously, [35]. […]
Data were analyzed using Prism 5 graphing software (GraphPad, La Jolla, CA, USA). […]

EGFR-HER3 heteromer = target: T2, EGFR-HER3 heteromer (Homo sapiens, UniProt P00533+P21860); experiment: RTK-HIT BRET between HER3/Rluc8 and Grb2/Venus with untagged EGFR co-expressed; assay type: cell-based; settings: HEK293FT cells, about 25 minutes of agonist stimulation
T2 construct: used to replace the C terminus of the full-length constructs (with or without Rluc8); host or cells: HEK293FT
Protocol: as §1
Following initial titration of cDNA amounts (data not shown), two ratios were selected for the heteromer combinations shown in Figure 2. […] BRET measurements were taken at 37°C using the VICTOR Light plate reader with Wallac 1420 software (PerkinElmer, Glen Waverley, Victoria, Australia). Filtered light emissions were sequentially measured at 400–475 and 520–540 nm. The BRET signal was calculated by subtracting the ratio of 520–540 nm emission over 400–475 nm emission for a vehicle-treated cell sample from the same ratio for a second aliquot of the same cells treated with agonist, as described previously, [35].

T1 sequence (P21860 20-1342): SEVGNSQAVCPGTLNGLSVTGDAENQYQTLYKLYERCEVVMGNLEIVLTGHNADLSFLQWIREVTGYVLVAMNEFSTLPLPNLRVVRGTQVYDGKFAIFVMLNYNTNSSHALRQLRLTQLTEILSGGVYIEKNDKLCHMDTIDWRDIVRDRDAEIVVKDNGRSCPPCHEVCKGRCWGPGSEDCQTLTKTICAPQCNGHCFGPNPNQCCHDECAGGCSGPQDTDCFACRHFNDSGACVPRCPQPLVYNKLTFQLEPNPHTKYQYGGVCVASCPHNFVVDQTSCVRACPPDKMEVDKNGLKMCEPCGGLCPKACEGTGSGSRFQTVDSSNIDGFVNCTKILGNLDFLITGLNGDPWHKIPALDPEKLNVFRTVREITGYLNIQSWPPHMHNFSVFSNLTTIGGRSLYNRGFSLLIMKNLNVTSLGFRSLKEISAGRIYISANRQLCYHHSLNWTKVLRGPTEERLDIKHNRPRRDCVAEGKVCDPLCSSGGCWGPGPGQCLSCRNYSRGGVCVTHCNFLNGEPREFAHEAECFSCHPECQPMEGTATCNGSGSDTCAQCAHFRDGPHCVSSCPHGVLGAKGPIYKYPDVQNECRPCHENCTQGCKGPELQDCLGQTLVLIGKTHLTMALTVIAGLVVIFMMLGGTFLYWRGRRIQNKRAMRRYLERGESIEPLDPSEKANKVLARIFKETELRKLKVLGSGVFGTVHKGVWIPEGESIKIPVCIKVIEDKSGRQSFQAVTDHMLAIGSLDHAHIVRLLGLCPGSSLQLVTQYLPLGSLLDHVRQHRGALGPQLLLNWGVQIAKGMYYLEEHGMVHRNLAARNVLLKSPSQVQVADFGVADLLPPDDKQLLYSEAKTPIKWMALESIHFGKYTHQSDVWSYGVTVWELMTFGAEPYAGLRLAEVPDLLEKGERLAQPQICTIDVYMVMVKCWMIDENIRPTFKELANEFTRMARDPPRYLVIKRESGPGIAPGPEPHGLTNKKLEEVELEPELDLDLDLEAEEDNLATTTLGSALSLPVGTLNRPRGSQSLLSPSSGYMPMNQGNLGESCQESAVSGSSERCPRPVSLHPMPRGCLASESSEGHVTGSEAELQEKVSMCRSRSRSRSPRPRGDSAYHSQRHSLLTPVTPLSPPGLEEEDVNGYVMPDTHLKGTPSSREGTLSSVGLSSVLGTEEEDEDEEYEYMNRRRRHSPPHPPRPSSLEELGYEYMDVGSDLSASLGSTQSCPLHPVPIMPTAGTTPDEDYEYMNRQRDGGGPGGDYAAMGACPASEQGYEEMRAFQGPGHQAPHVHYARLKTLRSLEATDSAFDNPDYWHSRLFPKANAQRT

effect on BRET (HER3; increasing concentrations of AG-1478, pre-treated or not with 20 nM EGF or HRG): no effect
Compound: COc1cc2ncnc(Nc3cccc(Cl)c3)c2cc1OC.Cl [AG-1478, AG-1478 hydrochloride, reference compound]

agonist-induced BRET signal (HER3; HER3/Rluc8 + Grb2/Venus without EGFR, 1 µM agonist, kinetic): no or little BRET signal
Compound: EGF: epidermal growth factor, ligand selective for EGFR

pEC50 (EGFR-HER3 heteromer): 7.46±0.14 (n = 5)
Compound: HRG: Heregulin-β1, ligand of HER3
